This experiment has as its target T1, NRF2-His (his-tag mouse NRF2) (mouse, UniProt Q60795 1-597).
T1 sequence (looked up): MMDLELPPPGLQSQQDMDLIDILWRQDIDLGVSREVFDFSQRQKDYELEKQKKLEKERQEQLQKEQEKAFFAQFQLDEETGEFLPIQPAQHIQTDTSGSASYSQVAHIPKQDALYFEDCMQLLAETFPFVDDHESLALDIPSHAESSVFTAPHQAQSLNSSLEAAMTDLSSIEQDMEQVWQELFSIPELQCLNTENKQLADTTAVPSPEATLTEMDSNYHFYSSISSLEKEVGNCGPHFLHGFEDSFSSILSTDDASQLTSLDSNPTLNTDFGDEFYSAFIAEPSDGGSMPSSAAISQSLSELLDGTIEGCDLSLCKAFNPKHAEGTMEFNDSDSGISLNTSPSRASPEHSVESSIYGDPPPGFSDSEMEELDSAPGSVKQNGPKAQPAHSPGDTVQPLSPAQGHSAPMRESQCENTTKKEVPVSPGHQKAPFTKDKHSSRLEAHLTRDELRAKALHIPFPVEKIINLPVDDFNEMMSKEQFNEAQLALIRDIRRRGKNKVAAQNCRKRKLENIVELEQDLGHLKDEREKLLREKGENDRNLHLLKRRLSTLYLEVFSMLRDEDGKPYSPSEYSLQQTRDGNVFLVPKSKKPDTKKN
Kind of experiment: pull-down.

B1: p53R245W-Flag (natural protein, mouse, UniProt P02340 1-390, looked up)
chain: MTAMEESQSDISLELPLSQETFSGLWKLLPPEDILPSPHCMDDLLLPQDVEEFFEGPSEALRVSGAPAAQDPVTETPGPVAPAPATPWPLSSFVPSQKTYQGNYGFHLGFLQSGTAKSVMCTYSPPLNKLFCQLAKTCPVQLWVSATPPAGSRVRAMAIYKKSQHMTEVVRRCPHHERCSDGDGLAPPQHLIRVEGNLYPEYLEDRQTFRHSVVVPYEPPEAGSEYTTIHYKYMCNSSCMGGMNWRPILTIITLEDSSGNLLGRDSFEVRVCACPGRDRRTEEENFRKKEVLCPELPPGSAKRALPTCTSASPPQKKKPLDGEYFTLKIRGRKRFEMFRELNEALELKDAHATEESGDSRAHSSYLKTKKGQSTSRHKKTMVKKVGPDSD
B1: the binding result is “binds”.

Source of the values: paper PMC10866549 (Science Advances, 2024).
